Experimental data from article PMC6297230, “Structural basis of meiotic telomere attachment to the nuclear envelope by MAJIN-TERB2-TERB1” (Nature Communications, 2018).

Experiments:
Test in all cases: EMSA
Details in all cases: apparent, Hill fit; EMSA: 20 mM Tris pH 8.0, 250 mM KCl, 1 h at 4 °C, 3% glycerol, 0.5% agarose in 0.5x TBE; 25 nM FAM-DNA for Kd (protein as oligomer), 0.3 uM DNA for display
[1] = molecular target: MAJIN Core;TERB2 C (human;human) (UniProt Q3KP22+Q8NHR7)
[2] = molecular target: MAJIN dTM;TERB2 C (human;human) (UniProt Q3KP22+Q8NHR7)
Sequence of MAJIN dTM;TERB2 C (human;human) (Q3KP22 whole entry, chain 1 of 2): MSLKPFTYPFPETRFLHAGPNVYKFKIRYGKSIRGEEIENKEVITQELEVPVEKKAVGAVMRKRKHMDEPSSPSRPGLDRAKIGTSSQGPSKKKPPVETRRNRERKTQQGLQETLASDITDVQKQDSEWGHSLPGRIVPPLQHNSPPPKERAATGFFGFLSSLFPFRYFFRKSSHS
Sequence of MAJIN dTM;TERB2 C (human;human) (Q8NHR7 168-220, chain 2 of 2): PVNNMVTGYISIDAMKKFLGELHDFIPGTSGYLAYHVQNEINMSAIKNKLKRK

[3] = molecular target: MAJIN dTM;TERB2 C-Tr (human;human) (UniProt Q3KP22+Q8NHR7)
Sequence of MAJIN dTM;TERB2 C-Tr (human;human) (Q3KP22 whole entry, chain 1 of 2): as the sequence (Q3KP22 whole entry, chain 1 of 2) above
Sequence of MAJIN dTM;TERB2 C-Tr (human;human) (Q8NHR7 168-207, chain 2 of 2): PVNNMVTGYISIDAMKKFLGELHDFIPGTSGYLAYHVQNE

[4] = molecular target: MAJIN Core;TERB2 full length;TERB1 TRFB (human;human;human) (UniProt Q3KP22+Q8NHR7+Q8NA31)
Sequence of MAJIN Core;TERB2 full length;TERB1 TRFB (human;human;human) (Q3KP22 whole entry, chain 1 of 3): as the sequence (Q3KP22 whole entry, chain 1 of 2) above
Sequence of MAJIN Core;TERB2 full length;TERB1 TRFB (human;human;human) (Q8NHR7 whole entry, chain 2 of 3): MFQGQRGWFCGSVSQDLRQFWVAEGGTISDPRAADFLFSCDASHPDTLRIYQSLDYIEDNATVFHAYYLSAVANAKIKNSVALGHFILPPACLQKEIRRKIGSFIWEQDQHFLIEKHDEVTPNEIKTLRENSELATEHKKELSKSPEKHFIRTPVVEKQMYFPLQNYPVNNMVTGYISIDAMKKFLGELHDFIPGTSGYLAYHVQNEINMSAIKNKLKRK
Sequence of MAJIN Core;TERB2 full length;TERB1 TRFB (human;human;human) (Q8NA31 561-658, chain 3 of 3): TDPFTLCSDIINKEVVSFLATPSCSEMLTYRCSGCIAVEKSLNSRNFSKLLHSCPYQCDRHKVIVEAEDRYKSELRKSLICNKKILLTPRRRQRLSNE

Sequence of MAJIN Core;TERB2 C (human;human) (Q3KP22 whole entry, chain 1 of 2): as the sequence (Q3KP22 whole entry, chain 1 of 2) above
Sequence of MAJIN Core;TERB2 C (human;human) (Q8NHR7 168-220, chain 2 of 2): as the sequence (Q8NHR7 168-220, chain 2 of 2) above

| Sequence | Kd [1] [µM] | Kd [2] [µM] | Kd [3] [µM] | Kd [4] [µM] |
| --- | --- | --- | --- | --- |
| AATTCTCATTTTACTTACCGGACGCTATTAGCAGTGGCAGATTGTACTGAGAGTGCACCATATGCGGTGTGAAATACCGCACAGATGCGT [Random ssDNA (90 nt)] | 0.9 | – | – | – |
| TTTTTTTTTTTTTTTTTTTTTTTTTTTTTTTTTTTTTTTTTTTTTTTTTTTTTTTTTTTTTTTTTTTTTTTTTTTTTTTTTTTTTTTTTTTTTTTTTTTT [Poly(dT) (100 nt)] | 0.51 | – | – | – |
| TTAGGGTTAGGGTTAGGGTTAGGGTTAGGGTTAGGGTTAGGGTTAGGGTTAGGGCGACGACCCTAACCCTAACCCTAACCCTAACCCTAACCCTAACCCTAACCCTAACCCTAA [Telomeric hairpin DNA (54 bp)] | 0.61 | – | – | – |
| TTCCAGGGTTCCATGGAGATAAAGGTCAATAAATTAGAGTTAGAACTAGAAAGTGCCAAACAGAAATTTGGAGAAATCACAGACACCTATCAGAAAGAAATTGAGGACAAAAAGATATCAGAATAATAACCATGGATATCGAATT (double strand) [FAM random dsDNA (145 bp)] | 0.55 | 0.12 | 0.2 | 0.46 |
